# Several values for one entry are separate records, joined by “and”; a condition that tells them apart may be missing. Identical values can stand only once.
# Experiment: Enhertu analytes (TAB, TADC, free payload) in skin tissue homogenates of injection site
# Format: in vivo, Yucatan miniature pig (Sus scrofa domestica)
# Conditions: SC; for Free Payload Result / TADC/TAB Ratio / Total Antibody Result: skin injection site homogenate, individual sites; for TADC/TAB ratio in tissue homogenates / Concentration of free payload in tissue homogenates of injection site / Concentration of total ADC (TADC) in tissue homogenates of injection site / Concentration of total antibody (TAB) in tissue homogenates of injection site / AUC(1-7), free payload in tissue homogenates of injection site / AUC(1-7), total ADC (TADC) in tissue homogenates of injection site / AUC(1-7), total antibody (TAB) in tissue homogenates of injection site / Cmax, free payload in tissue homogenates of injection site / Cmax, total ADC (TADC) in tissue homogenates of injection site / Cmax, total antibody (TAB) in tissue homogenates of injection site: skin
# Experimental: Porcine serum was used as surrogate matrix to prepare calibration standards and quality controls for skin sample quantitation. Untreated blank porcine skin was provided for preparation of monitoring quality controls. The porcine skin was homogenized at an approximate ratio of 0.5 mL of buffer for every 100 mg of skin. […] The monitoring controls were analyzed during the method performance evaluation. The following were selected for monitoring in the assay (Table 83).
# Porcine serum was used as surrogate matrix to prepare calibration standards and quality controls for the quantitation of skin samples. […] The porcine skin was homogenized at an approximate ratio of 0.5 mL of buffer for every 100 mg of skin. […] These were analyzed during the method performance evaluation.
# This sample was divided vertically into two identical pieces. One skin sample was placed into a pre-weighed cryogenic tube and its weight was recorded then stored on dry ice prior to transfer to ≤−70° C. The other skin sample was processed for potential future histological assessment into OCT freezing media and frozen on dry ice.
# Animals received two SC doses on their lower abdominal region.
# Two cohorts were included in the follow-on study. […] Each animal had two full thickness skin biopsies taken post-mortem using a 12 mm punch. This sample was divided vertically into two identical pieces. One skin sample was placed into a pre-weighed cryogenic tube and its weight was recorded, then stored on dry ice prior to transfer to ≤−70° C. The other skin sample was processed into OCT molds for potential future histological assessment.
# Tissue lysates were prepared based upon the weight of the sample at a ratio of 0.2 g/mL homogenization buffer (Tables 81 and 82). The total protein concentration of each homogenate was determined by BCA assay. The concentration of the total ADC (TADC), total antibody (TAB) and free payload (deruxtecan) in each sample was then normalized to the protein concentration and reported in μg analyte per mg total protein.
# In this study, six animals were used. […] Two cohorts were included in this study. Cohort 1 was euthanized 24 hours after treatment, while Cohort 2 was euthanized 48 hours after exposure to the two test solutions.
# [1] = 24 h post-injection, individual animal, listed as ADC
# [2] = 48 h post-injection, individual animal, listed as ADC
# [3] = 168 h post-injection, individual animal, listed as ADC
# [4] = individual series, listed as ADC
substance,measurement,setting,value
Sacituzumab govitecan [Trodelvy],"Cmax, total ADC in skin",mean,24210 ng/mL
same,"Cmax, total antibody in skin",mean,27650 ng/mL
same,"ADC/Ab ratio, mean AUC1-7",minipig skin,87%
same,"ADC/Ab ratio, mean Cmax",minipig skin,88%
same,"ADC/Payload ratio, mean AUC1-7",minipig skin,147791%
same,"ADC/Payload ratio, mean Cmax",minipig skin,128404%
same,Free Payload Result,"24 h, listed as ADC",124000 pg/mL and 67800 pg/mL and 138000 pg/mL
same,TADC/TAB Ratio,"24 h, listed as ADC",0.97 and 0.75 and 0.87
same,Total Antibody Result,"24 h, listed as ADC",143 µg/mL and 97.8 µg/mL and 237 µg/mL
same,Free Payload Result,"48 h, listed as ADC",21700 pg/mL and 29500 pg/mL and 33800 pg/mL
same,TADC/TAB Ratio,"48 h, listed as ADC",0.77 and 0.86 and 0.96
same,Total Antibody Result,"48 h, listed as ADC",50.2 µg/mL and 51.7 µg/mL and 58.1 µg/mL
same,Free Payload Result,"168 h, listed as ADC",3320 pg/mL and 2240 pg/mL and 3520 pg/mL
same,TADC/TAB Ratio,"168 h, listed as ADC",1.00 and 0.67 and 0.70
same,Total Antibody Result,"168 h, listed as ADC",4.43 µg/mL and 4.86 µg/mL and 5.80 µg/mL
same,TADC/TAB ratio in tissue homogenates,"24 h post injection, individual animal, listed as ADC",0.87 and 0.97 and 0.75
same,TADC/TAB ratio in tissue homogenates,"24 h post injection, mean",1.14
same,Concentration of free payload in tissue homogenates of injection site,[1],0.026 μg/mg protein and 0.020 μg/mg protein and 0.011 μg/mg protein
same,Concentration of total ADC (TADC) in tissue homogenates of injection site,[1],38.48 μg/mg protein and 22.00 μg/mg protein and 12.15 μg/mg protein
same,Concentration of total antibody (TAB) in tissue homogenates of injection site,[1],44.05 μg/mg protein and 22.63 μg/mg protein and 16.28 μg/mg protein
same,Concentration of free payload in tissue homogenates of injection site,"24 h post-injection, mean",0.02 μg/mg protein
same,Concentration of total ADC (TADC) in tissue homogenates of injection site,"24 h post-injection, mean",24.21 μg/mg protein
same,Concentration of total antibody (TAB) in tissue homogenates of injection site,"24 h post-injection, mean",27.65 μg/mg protein
same,TADC/TAB ratio in tissue homogenates,"48 h post injection, individual animal, listed as ADC",0.78 and 0.86 and 0.96
same,TADC/TAB ratio in tissue homogenates,"48 h post injection, mean",1.15
same,Concentration of free payload in tissue homogenates of injection site,[2],0.003 μg/mg protein and 0.005 μg/mg protein (2×)
same,Concentration of total ADC (TADC) in tissue homogenates of injection site,[2],5.97 μg/mg protein and 6.98 μg/mg protein and 7.80 μg/mg protein
same,Concentration of total antibody (TAB) in tissue homogenates of injection site,[2],7.70 μg/mg protein and 8.07 μg/mg protein and 8.14 μg/mg protein
same,Concentration of free payload in tissue homogenates of injection site,"48 h post-injection, mean",0.00 μg/mg protein
same,Concentration of total ADC (TADC) in tissue homogenates of injection site,"48 h post-injection, mean",6.92 μg/mg protein
same,Concentration of total antibody (TAB) in tissue homogenates of injection site,"48 h post-injection, mean",7.97 μg/mg protein
same,TADC/TAB ratio in tissue homogenates,"168 h post injection, individual animal, listed as ADC",1.01 and 0.67 and 0.70
same,TADC/TAB ratio in tissue homogenates,"168 h post injection, mean",1.27
same,Concentration of free payload in tissue homogenates of injection site,[3],0.001 μg/mg protein and 0.000 μg/mg protein (2×)
same,Concentration of total ADC (TADC) in tissue homogenates of injection site,[3],0.69 μg/mg protein and 0.48 μg/mg protein and 0.55 μg/mg protein
same,Concentration of total antibody (TAB) in tissue homogenates of injection site,[3],0.68 μg/mg protein and 0.72 μg/mg protein and 0.79 μg/mg protein
same,Concentration of free payload in tissue homogenates of injection site,"168 h post-injection, mean",0.00 μg/mg protein
same,Concentration of total ADC (TADC) in tissue homogenates of injection site,"168 h post-injection, mean",0.57 μg/mg protein
same,Concentration of total antibody (TAB) in tissue homogenates of injection site,"168 h post-injection, mean",0.73 μg/mg protein
same,"AUC(1-7), free payload in tissue homogenates of injection site",[4],0.024 ug*day/mL (2×) and 0.021 ug*day/mL
same,"AUC(1-7), total ADC (TADC) in tissue homogenates of injection site",[4],38.87 µg·days/mL and 33.14 µg·days/mL and 30.85 µg·days/mL
same,"AUC(1-7), total antibody (TAB) in tissue homogenates of injection site",[4],46.85 µg·days/mL and 37.33 µg·days/mL and 34.52 µg·days/mL
same,"Cmax, free payload in tissue homogenates of injection site",[4],26 ng/mL and 20 ng/mL and 11 ng/mL
same,"Cmax, total ADC (TADC) in tissue homogenates of injection site",[4],38480 ng/mL and 22000 ng/mL and 12150 ng/mL
same,"Cmax, total antibody (TAB) in tissue homogenates of injection site",[4],44050 ng/mL and 22630 ng/mL and 16280 ng/mL
same,"AUC(1-7), free payload in tissue homogenates of injection site",mean,0.02 µg·days/mL
same,"AUC(1-7), total ADC (TADC) in tissue homogenates of injection site",mean,34.29 µg·days/mL
same,"AUC(1-7), total antibody (TAB) in tissue homogenates of injection site",mean,39.57 µg·days/mL
same,"Cmax, free payload in tissue homogenates of injection site",mean,20 ng/mL
same,"Cmax, total ADC (TADC) in tissue homogenates of injection site",mean,24210 ng/mL
same,"Cmax, total antibody (TAB) in tissue homogenates of injection site",mean,27650 ng/mL

# Source: US20260069707A1, “COMBINATION THERAPY WITH ANTIBODY-DRUG CONJUGATES AND HYALURONIDASES” (HALOZYME, INC., priority 2024, published 2026)
